Measured values taken from the DeepSol protein solubility set.

Assay: soluble on expression in E. coli; label from the status in PepcDB or PDB records

| Sequence | soluble on expression in E. coli |
| --- | --- |
| MSKSVSIPQALSDLKRTSLRRLSSARGVGNKKTVVSTSTPLSGFVILVEREEKVVRLYGTAAERAGLSIGDEIVGVNDMKIEGKSYEEVTTYIQECIRRKIIQLKVRRRALEIPAENEASVFNCTNSNRMITDAYLVSVDKDHIKEVTKRLKK | not soluble |
| MAKRPSTSKNPAEDDELIIDECRRKLDDDESNDVGAYFEDDNQQGTSYRTPFMPSHLGLIQDQSPDLTMKDLFNRKRSRPQSTGFIDHSQARYYDRYKQQEYTRRNDFMKYCHVCRKKTVGKLRVLPGDLRMRKVWILRSNLDEERSAELWLREMACEGSHGGEFCEAHFPAGSQHMKGNQLIPLDVRPEEGRHSVVEDIQFDFDAIHLQCVFCGRDGPLATMLPFIRNRAKRLRWIEQLASGNETYKNRLLHALRGGVTQFLCDYHISDSSFEINGFGEWRLLKNALPDPRLVASDKRGERKYLVDKCRDEMFWERAMWKSADLLSQNGTADDEDIIVGDDIRQFLTNSVPSEAEQVLHPILQIKQNVEKKLNEADLQPGTSGTSGESNATADNLKIGISEEGVEYSDDSDEENELIEKMGDIPYSKRLCQVCSAVEPIGNEFPNNFPYKFSIRTWPFDECRHKKWLEIMDWPPEFEESMKTLWQKRKTEGALSDSYHFCPINVCQSHLDFRQLPERMEEWHQTFCLLCDTCMSDKSFLVGIPHNFETRTKWANSLFPVKEGNKFQLKKISWLRRRFLRSKPTRYRICVYHFNRKAFQVNQDDKIVLDAEALPLPIDSDDFDLTPRGPNSVCKCVLCDDWKKVEDMVPFRAPHSEAERSFLIDIVIHSDKMTIKKALASLAKTNRPALICNIHFPDGIDPFSIIAERRLMYGVQSECVLCAHANDCTAMIPFPGPDDEKLRTKWINSMCREPWIYRYLSTRLEKPGRHYLCASHFNRNSLRYHAGLGLWRRAAACPVLACTTDEERQEVWDLSKSQPLYHPLILETFDDNGSGRLDYDDVLNFLGTERMRQIETELNFHGRNDSLLRRENRKKNTGRSFYADMPNIYEHGELQEVEDQMEGEEEEVVQEECIIYEEEHHLDEAEELEVIEEEEVVEEIVEQVVDDGVVVGEEM | not soluble |
| MGFFVSEGERCMTYCATEVTFPQGITSLETQVMLLQTHQNGMDIVTYSTPFHPVSHIWPDHPADRGILIWQGSEYAVTDCVVGAIEQASGHLYVGNNIPVKREESGWLFVVVHRLGEVIAACQVGDKVQLQVDTQYQASLSRGHSAGHLGYLALNKVLAQGYWRKDAERKDPQGYFDFNSYAQISSDVTPDCSTDVYRLGKTLRKRGLNSDDVLRDLSFIEQKTNEQLAQWLALASPIRLECTGSTLTDSRYWECDLHEANIARIPCGGTHCKGLTAFQSIQVTLKQVDEQHIEAVTCAQPSESELEHHHHHH | soluble |
| MFKRETKDFINIDPLQTGGKLTEEARQALLEWGDGYSVCDFCTTGRLDEIKTPPIHDFIHNQLPKFLGCDVARVTNGAREAKFAVMHSLAKKDAWVVMDENCHYSSYVAAERAGLNIALVPKTDYPDYAITPENFAQTIEETKKRGEVVLALITYPDGNYGNLPDVKKIAKVCSEYDVPLLVNGAYAIGRMPVSLKEIGADFIVGSGHKSMAASGPIGVMGMKEEWAEIVLRRSEKYKNKEVELLGCTARGATIITLMASFPHVRERIKRWDEEVEKARRFAAEMEKLGIKQLGDNPHNHDLMFFHAEVLYEISKKAKGGRFFLYRELKSRKIHGIKPGLTRYFKLSTYGLSDEEVDYVLNAFKEIIEKYS | soluble |
| MAHHHHHHMSTHIERLQSEDEVAFKLKGEIAAIEKEIKSWFIKRRLNMELNYSLHNLFTNYNIVGLSINKKIDLKEKMLWHDIVNGKPTLEDTLSLDAKEYKADVYRKMWENSTTTDNPCRLVGSIFFRCLKGNYQLTEQEREGTCMHSFLNFTHCRKALKLQQANNIRTALTKQSAEDTQAKALFERRSALLGKLTGSAP | not soluble |
| MGSDKIHHHHHHMAKYEQLAQELKTRIAQGVWQAGDKLPSLRQTVADSGLSLMTVLNAYQLLESQGVISAQAKSGYLVAPKPELIARQGEAFRYPERQKPIYLSDSVDINEFVFNVLQASKQADIVPFGSGFPDPSLFPQQALARSLVKVTRHMSPSFAADNLPPGNAGLRKAISQRYAKLGMSISPDEIIITSGAMEALNLSLATLTQAGDWVVIESPTFYGAMQAIERLKLKAIAVATDPQQGIDLEALAEVLKTYPVKACWLMSQHQNPLGCSLSDTKKQALYQLLNEHKVSLIEDDVYQELYVDSSAPRSVKAFDTEGRVLHCGSFSKSLIAGYRVGWVAAGCHAPQLQRLQVMSTLSTSAPMQLAIADFIQSAQYERHLKQLRKKLASRKLAMYQLLCAHLPESVGVNFAQGGYFLWLALPAHMDATQIYYQAIERGISIAPGNLFSNQVEFRHFMRLNASYECSSEIVSAVMVLAELIRNYSRRS | not soluble |
| MGELANCPKCNALFLKTKLQTVCQACIKEEEKSFETVYKFLRKQENRQSTLSRITEETGVEEELILKFIRQKRIQITHLPNLAYPCERCGTSIREGKFCKACQSDIKDQMDHLNHEDALKIEKENSKKDTYYAYNTKNSLEHHHHHH | soluble |
| ARIMKAIFVLNAAPKDNTWYAGGKLGWSQYHDTGFYGNGFQNNNGPTRNDQLGAGAFGGYQVNPYLGFEMGYDWLGRMAYKGSVDNGAFKAQGVQLTAKLGYPITDDLDIYTRLGGMVWRADSKGNYASTGVSRSEHDTGVSPVFAGGVEWAVTRDIATRLEYQWVNNIGDAGTVGTRPDNGMLSLGVSYRFGQEDAAPVVAPAPAPAPEHHHHHH | soluble |
| MSLISIVVLYYSRHGSTQALARQIARGVESVEGCQALLRTVAELDGTASNSDPYLSLDELKQCDGLALGSPVWFGNMAAPLKHFWDQTTPLWLSGALIDKPACVFTSSSTLHGGQETTQQSMMLPLLHHGMLILGIPYSEPALHTTQSGGTPYGASHVHQQKTLSSEEAELARQLGKRLAHVAKQLKGEGGSHHHHHH | soluble |
| MPDGQRVTKRSEDSRYFTVQPADTPGMANAQGYLPAHDAAGFDKRLDAIAATVCPNDPRTPDQRRADALGALGRYRDTLDCQCGREDCTAVAERDAVNNAMIHVLAEQSTLDGGNEPGYLPGFGMLPAHMVREVAKTATTKPVTIPKDKAQSGYRPNAELTEFIRWRDLTCRFPGCDAPAMAADIDHTRPLEHHHHHH | soluble |
| MTELKNDRYLRALLRQPVDVTPVWMMRQAGRYLPEYKATRAQAGDFMSLCKNAELACEVTLQPLRRYPLDAAILFSDILTVPDAMGLGLYFEAGEGPRFTSPVTCKADVDKLPIPDPEDELGYVMNAVRTIRHELKGEVPLIGFSGSPWTLATYMVEGGSSKAFTVIKKMMYADPQALHALLDKLAKSVTLYLNAQIKAGAQAVMIFDTWGGVLTGRDYQQFSLYYMHKIVDGLLRENDGRRVPVTLFTKGGGQWLEAMAETGCDALGLDWTTDIADARRRVGNKVALQGNMDPSMLYAPPARIEEEVATILAGFGHGEGHVFNLGHGIHQDVPPEHAGVFVEAVHRLSEQYHR | soluble |
| MGHHHHHHGSLVPRGSRAYSFKVVLLGEGCVGKTSLVLRYCENKFNDKHITTLQASFLTKKLNIGGKRVNLAIWDTAGQERFHALGPIYYRDSNGAILVYDITDEDSFQKVKNWVKELRKMLGNEICLCIVGNKIDLEKERHVSIQEAESYAESVGAKHYHTSAKQNKGIEELFLDLCKRMIET | soluble |
| MAHHHHHHMRNIVQKYLQRNSTKLFNRTSVFNLYKKCNFSGYKIYSDGLVHSEFSTELKTVNEVIKMPIYRILDTNGHLLDGHEAPFKDEEVLKIYKDMVEFSIWDEIFYGIQRQGRISFYIVNEGEEGLQFGMGKALSVDDHLYCQYRETGVLLSRGFTYTDILNQLFGTKYDEGKGRQMCICYTKKDLNIHTITTPLGSQLSHAAGCGYALKLKNQKAVAVTYCGDGSSSEGDFYAALNFASVRQSQTMFVCKNNLYAISTSIKDQYRGDGIAPRALALGIESIRVDGNDLFASYLATKKLRDICIQESKPVFIEFMSYRYGHHSTSDDSSLYRPKEENEAWRQEGVHPISRIFLYLKNKNLYSEKEDQEHRKSVKENVLKELKKYESVKRYNIVGGLFEDVYHEEDWNIKEQRENFEQFFKENKHNYDTSKFER | soluble |
| MGHHHHHHSHMAVVRATSADVDLMARLLRAEAEGEGKQGMLLVGNVGINRLRANCSDFKGLRTIRQMIYQPHAFEAVTHGYFYQRARDSERALARGSINGERRWPAKFSLWYFRPQGDCPAQWYNQPFVARFKSHCFYQPTAETCENVYNTF | not soluble |
| MGNPTGFINVGRALPTERKAGERLSDWLEVYEEIPLKAVEKQASRCMDCGVPFCQSAKSEFAPAVAGCPVNNVIPEWNDLIYRGRWKDAIELLHKTNNFPEFTGRVCPAPCEGACVLGINADPVAIKLHEKEIIDHAFKEGWVVAQPPSARTGKNVAVIGSGPAGLAAAAQLNKAGHMVTVYERADRIGGLLMYGIPNMKLQKELVQRRVDILAEEGIVFVTNTEVGKDVSVEKLESDFDAIVLCIGATVPRDLPVEGRELNGVHFAMDFLKANTKSLLDSEHKDGQYINAQGKNVVVIGGGDTGTDCIGTSLRHQCTNALQLEIMPRPPEKREENNNPWPQWPKRLLVDYGQKEAIEIQGQDPRQYLVMTKKIESDVQGNVKAVHTVDITWERNDKGQMFPQEVAGSEKAIPADIVLIAMGFMGPEGGLVEQFGLEQDNRSNIAAEYDKFATSKQGVFAAGDGRRGQSLIVWAIDEGRRCAREVDSYLMGKSYLPLEHHHHHH | not soluble |
| VICHGDFAPYNVALNGNQTVGIFDFDTAHPAPRLWDIAYAVYCWAPFKTNEYDALGDLNSQSARAKLFCDSYGLSNAEREKL | not soluble |
| GPGSMHLSELCRDSNIDVIIARLRQVAPLEPAPAFSLSEGAADDDTTPATGHSDFHGLWSYQDNDGRTAFHWAIALKNFDLARKLMQAPYNSPVLTEDEEWSTPFATACSVGAPLDLLREILDRSVVELAAHMKQKETQQNPTSEEQNSSSAAVTEPAEGSSDGKPTKFLSDMPGILQPVDGTPASISAVLVDAEDATGQTPLLLAVGRGHLSIVRFLLENGANLMHQNRRGQSCLHRAVNRGNMELVEFLVSTSENNAKSKAVHRVWMDLRDKHGDSALFYASMDNNEEIGRYLLRHGADRELRNADGKAFWEV | soluble |
| MSLTILQELPKLSPLPARKLGSYTCKTVHMTTTELLPFHAVGTSPDAAAQADSNIETQFANVLHSLQVNKQRDPFDIIQDFKQICADRALSTRDKLSLDESNTALAEEFDNWDLEFKLWELVDRLFRFRALFSNKAKTELLREYDFSSMGIKQENFLRKNPAIRELSIIILWLQSHTPSLVGDETESYQTKWKNTAMAVANSDFDVLASRATDADLIDKLDIDAPLRSNRSIHPADESNDSKVFAQIYKLLLQDRVQDAIDIANNTGNYALALILVGATQEYFDPVLDKQDLDFDSIVAEQTKPSGIKHKLLWKKTVYKLSQQANLNKYEKLIYNYLCGGDISGNLLVASDDWEQTLLLYLSQLYSYNIDNFIVSQLSSEQEILPVNIPKPQLNTIAEILNTILHSGNLLTQQSENPLRVIMGSVMLDNVPSLLHNLTSSLTGEPEALKKPYISRVLTHLAIFQLLVVGTDNINNEDITTIITSYTSKLAEYKLPELIPIYLSFVPNEKDSREAYALFLSSLTDSSDRSKQIEISRRIANSISEVDEAMELAANTQEDKMMNVLRRTVERVMKDTESHYKPQAVIEVQDDINSVDDIDSKLYHSVEWFYENKMYEDAIVATIAIIRRFLLCGKLAPLKAFSKGKNFKLLLVEYDTQLQTKSLIFQNEPEIVTEEDKEELLAYASLIEGLILIDEWKKFVSTQINSEGHHHHHH | not soluble |
| MGDDCSDHSSLCKHCCYEMIRDSIKDYKSGPLYARCPQCFRNISSLTRRKRRLTSEGHDENCPAPMVPMVNAEHSISLCDYTTSMMGGGQVNKGFESSSSLFLCFRKFPIGNYNQKFFVGDSLKNGRIQYRNTKYEYSKKHFRSYKFFMIFQICRSKFQNL | not soluble |
